According to publication PMC9368931, “Involvement of a Cluster of Basic Amino Acids in Phosphorylation-Dependent Functional Repression of the Ceramide Transport Protein CERT” (International Journal of Molecular Sciences, 2022):
Several values for one entry are separate records, joined by “and”; a condition that tells them apart may be missing. Equal values may be shown once.

How the values were obtained:
[1] = molecular target: the molecule itself; assay: native gel or EMSA; blue native PAGE of purified CERT (10 ng), 1% digitonin, 0.25% CBB G-250, 4-16% Bis-Tris gel; anti-HA western blot
[2] = molecular target: the molecule itself; assay: cross-linking; purified CERT (10.8 ng in 30 μL of 50 mM HEPES-NaOH pH 7.4) with EGS (0.1-1.6 mM) on ice for 2 h; SDS-PAGE (6%) and anti-HA western blot

Protein | stoichiometry N [1] | stoichiometry N [2]
Recombinant human CERT S132A purified from Sf21 cells (natural protein, UniProt Q9Y5P4-2 1-598, looked up, Ceramide transport protein CERT (GPBPΔ26), human, printed length 598 amino acids; The template plasmid is named pBS/nHAcFL-CERT, which may mean a further C-terminal FLAG tag; Mainly a homo-trimer by cross-linking and blue native PAGE; not shown: HA, N-terminal, kept) MSDNQSWNSSGSEEDPETESGPPVERCGVLSKWTNYIHGWQDRWVVLKNNALSYYKSEDETEYGCRGSICLSKAVITPHDFDECRFDISVNDSVWYLRAQDPDHRQQWIDAIEQHKTESGYGSESSLRRHGAMVSLVSGASGYSATSTSSFKKGHSLREKLAEMETFRDILCRQVDTLQKYFDACADAVSKDELQRDKVVEDDEDDFPTTRSDGDFLHSTNGNKEKLFPHVTPKGINGIDFKGEAITFKATTAGILATLSHCIELMVKREDSWQKRLDKETEKKRRTEEAYKNAMTELKKKSHFGGPDYEEGPNSLINEEEFFDAVEAALDRQDKIEEQSQSEKVRLHWPTSLPSGDAFSSVGTHRFVQKVEEMVQNHMTYSLQDVGGDANWQLVVEEGEMKVYRREVEENGIVLDPLKATHAVKGVTGHEVCNYFWNVDVRNDWETTIENFHVVETLADNAIIIYQTHKRVWPASQRDVLYLSVIRKIPALTENDPETWIVCNFSVDHDSAPLNNRCVRAKINVAMICQTLVSPPEGNQEISRDNILCKITYVANVNPGGWAPASVLRAVAKREYPKFLKRFTSYVQEKTAGKPILF | 3 | –
Recombinant human CERT S132A/13A purified from Sf21 cells (natural protein, UniProt Q9Y5P4-2 1-598, looked up, Ceramide transport protein CERT (GPBPΔ26), human, printed length 598 amino acids; The template plasmid is named pBS/nHAcFL-CERT, which may mean a further C-terminal FLAG tag; also called S132/13A; not shown: HA, N-terminal, kept) MSDNQSWNSSGSEEDPETESGPPVERCGVLSKWTNYIHGWQDRWVVLKNNALSYYKSEDETEYGCRGSICLSKAVITPHDFDECRFDISVNDSVWYLRAQDPDHRQQWIDAIEQHKTESGYGSESSLRRHGAMVSLVSGASGYSATSTSSFKKGHSLREKLAEMETFRDILCRQVDTLQKYFDACADAVSKDELQRDKVVEDDEDDFPTTRSDGDFLHSTNGNKEKLFPHVTPKGINGIDFKGEAITFKATTAGILATLSHCIELMVAAEDSWQAALDAETEAAAATEEAYANAMTELAAASHFGGPDYEEGPNSLINEEEFFDAVEAALDRQDKIEEQSQSEKVRLHWPTSLPSGDAFSSVGTHRFVQKVEEMVQNHMTYSLQDVGGDANWQLVVEEGEMKVYRREVEENGIVLDPLKATHAVKGVTGHEVCNYFWNVDVRNDWETTIENFHVVETLADNAIIIYQTHKRVWPASQRDVLYLSVIRKIPALTENDPETWIVCNFSVDHDSAPLNNRCVRAKINVAMICQTLVSPPEGNQEISRDNILCKITYVANVNPGGWAPASVLRAVAKREYPKFLKRFTSYVQEKTAGKPILF | – | 2 and 3
